According to patent US20090312253A1:
Positions count from the first letter of the chain named. In names and notes the source's numbering stands. One block for each binder: values may come before it.

Tests used:
[1] = biological target: LRP6 expressed on HEK cells transfected with the LRP6 plasmid; experiment: Dkk1-AP conditioned medium on LRP6-transfected HEK cells, AP activity in cell lysate, wild type = 100%
[2] = biological target: LRP6 expressed on HEK cells transfected with the LRP6 plasmid; experiment: binding of Dkk1 to LRP6, assay not described for this mutant (data not shown)

B1: mouse Dkk1-AP mutant H210E (ligand, UniProt O54908 32-272, looked up, not shown: large carriers)
chain: TLNSVLINSNAIKNLPPPLGGAGGQPGSAVSVAPGVLYEGGNKYQTLDNYQPYPCAEDEECGSDEYCSSPSRGAAGVGGVQICLACRKRRKRCMRHAMCCPGNYCKNGICMPSDHSHFPRGEIEESIIENLGNDHNAAAGDGYPRRTTLTSKIYHTKGQEGSVCLRSSDCAAGLCCAREFWSKICKPVLKEGQVCTKHKRKGSHGLEIFQRCYCGEGLACRIQKDHHQASNSSRLHTCQRH
reduction of binding to LRP6 against wild-type Dkk1 [1]: > 50%

B3: Dkk1 mutant L266A (ligand, mouse, UniProt O54908 32-272, looked up, not shown: large carriers)
chain: B1 chain with E179H, L235A
reduction of binding to LRP6 against wild-type Dkk1 [2]: 40%

Other lines, results leading:

reduction of binding to LRP6 against wild-type Dkk1 [1]: > 50%
B2: mouse Dkk1-AP mutant K217E (ligand, UniProt O54908 32-272, looked up, not shown: large carriers)
chain: B1 chain with E179H, K186E

reduction of binding to LRP6 against wild-type Dkk1 [1]: 43%
B4: mouse Dkk1-AP mutant H267E (ligand, UniProt O54908 32-272, looked up, not shown: large carriers)
chain: B1 chain with E179H, H236E

reduction of binding to LRP6 against wild-type Dkk1 [1]: > 50%
B5: mouse Dkk1-AP mutant R242E (ligand, UniProt O54908 32-272, looked up, not shown: large carriers)
chain: B1 chain with E179H, R211E
